T1: 15N-labelled NHR4 MYND domain of RUNX1T1 (UniProt Q06455 510-559, 15N-labelled)
T1 chain: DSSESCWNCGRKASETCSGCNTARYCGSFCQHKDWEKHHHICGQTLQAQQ


What was measured:
[1] = target: T1, 15N-labelled NHR4 MYND domain of RUNX1T1; experiment: NMR; pH 6
[2] = target: T1, 15N-labelled NHR4 MYND domain of RUNX1T1; experiment: NMR; pH 7.5

Kd [1] [µM] | Kd [2] [µM] | Binder
680 | 370 | Ac-LNQPPPPLIRPAN-NH2 [RCOR3_3 peptide (human RCOR3 residues 448-460)]
820 |  | Ac-TLNQPPPLLRPTL-NH2 [RCOR3_1 peptide (human RCOR3 residues 410-422)]
370 |  | Ac-TISNPPPLISSAK-NH2 [NCOR2 peptide (human NCOR2 residues 1101-1113)]
